Measurements as given in a protein production outcome set (Wang et al. 2014).

Test: label from the status in PepcDB records

Sequence | protein production
MLTKSVAVITSTIGRPELERAIQSVQQQTYPCQHYVFVDGVQFAEQAKQILDKYPQVIVTYLPMNTGANGWSNSSINAIAPFLAKEDMICYLDDDNWYEPNHVETCLTCLMQNQLDYVYSYRNLINSVNNHFICRDTFESVGPNKALKLDISSNMLNIAGSIQLHNENHIDTNTYFLTRKVALEASQYWYSGRSNDNNVSNWLLFSAYKGICTKTYSVNYLFDPTTFFNTFYQMICQNTPLNSSEQDKIAILEALIRAISDSQASD | failed
MHLRDRPGFGPGGPFRFRALPRAADKGTMMFKKILIANRGEIACRVIKTARKMGIQTVAVYSDADRNALHVSMADEAIHIGPPPANQSYIVIDKIMEAIKASGAEAVHPGYGFLSERMDFAAALEAAGVVFIGPPSGAIEAMGDKITSKKLAKEAGVSTVPGYMGLIADADEAVKISNEIGYPVMIKASAGGGGKGMRIAWSEAEVKEGFESSKNEAANSFGDDRIFIEKFVTQPRHIEIQVLADKHGNCVYLHERECSIQRRNQKVIEEAPSPFLDEATRKAMGEQACALAKAVGYASAGTVEFIVDGQKNFYFLEMNTRLQVEHPVTELITGIDLVEQMIRVAAGEKLPFQQSDLKINGWAMESRLYAEDPYRNFLPSIGRLTRYRPPVESVTPTSVVRNDTGVYEGGEISMYYDPMIAKLCTWAPTREAAIEEMRLALDTFEVEGIGHNLPFVGAVMDHPRFVKGDITTAFIAEEYPDGFQGAVLDEPTLRRVAAAAAAMNRVAEIRRTRISGTMNNHERHVGVDWVVALQGESYHVSIAADREGSTVSFSDGSSLRVTSDWTPGQPLASLMVDGRPLVMKVGKIPMGFRLRLRGADLKVNVRTPRQAELALLMPEKLPPDTSKYLLCPMPGLVVKINVAEGDEVQEGQALATVEAMKMENILRAERRGTVKKIAAAPGASLRVDDVIMEFE | failed
MFPLNFHYEDVSRQDPLLKPNHANVMEVPGSCEIRVVPKAPYNFIIKNGKLAMEIPRGQKFIQTQRGSTGKSFRSNPFLGSNKDKGYVSDLARQSTLRGHGMSNFSVRISTVMSLLDFPVEIRKNSIQFSMETEFCEFSPELEDHFEIFEHIRGFNVTIITSANTQDETLPLWSGFLQKDEGETQ | failed
MSPSCPMCTKWLDEPEFRIAELEHTRVMLNRDQFFPGYTFVFTREHVTELFHLSPPVRQGVMEEVTAVAAALYDLFQPAKMNYELLGNMVPHMHWHLVPRFATDPLWPRPIWSEPHAETLLAPEEYAGRIALIRDRLGL | failed
MIAMDIREIGLRLVGEAIKAADPYRAVLNAVKVSDDKIIVQGKEFEIKGKVYVIALGKAACEMARAIEDILDVEDGVAVTKYGYGKELKRIKVIEAGHPIPDEKSILGAKEALSILNRARENDIVFILISGGGSALFELPEEGISLEDLKLTTDLLLKSGAKIHEINTVRKHISKVKGGKLAKMIKGTGIVLIISDVVGDNLEAIASGPTVKDPTTFEDAKRILELYDIWEKVPESVRLHIERGLRGEVEETLKEDLPNVHNFLIASNSISCEAIAREAQRLGFKAYIMTTTLEGEAKDAGLFIGSIVQEIAERGRPFEPPVVLVFGGETTVTIEGKGGKGGPNQEIALSATRKISDLEALIVAFDTDGTDGPTDAAGGIVDGTTYKKLREKGIDVEKVLKEHNSYEALKKVGGLLFTGPTGTNVNSIVIAIVTSKRGRT | not failed
TKGEKKQESFLLEYVSANPTGPLHIGHARGAVFGDTLTRLARHLGYKFNTEYYVNDAGNQIYLLGLSILLSVKESILHENVEYPEQYYKGEYIVDLAKEAFEKFGKEFFSEENIPSLADWAKDKMLVLIKQNLEQAKIKIDSYVSERSYYDALNATLESLKEHKGIYEQEGKIWLASSQKGDEKDRVIIREDGRGTYLAADIVYHKDKMSRGYGKCINIWGADHHGYIPRMKAAMEFLGFDSNNLEIILAQMVSLLKDGEPYKMSKRAGNFILMSDVVDEIGSDALRYIFLSKKCDTHLEFDISDLQKEDSSNPVYYINYAHARIHQVFAKAGKKID | failed
MKFQLYIQPKLDILQGNIVEYEILLRDDSEVPRFPLSELEAVLADEELYLTFCEWFSDAFFDVLKKYPNDRFAINIAPQQLFYMETLHMLDKLRSESHRITIEMTEDIFDVPAHKRHLNADDKDAFILNKIKIIHGLGYHVAVDDVGCGLNSLERVLSYLPYIIELKFSLIHFNNIDLEDLLLFIKAWANFAHKNNLDFVVEGIETKETMAILESHGVSIFQGYLVNKPFPV | failed
MVLDVFIEVSLVIFVAFLISLVMRMLKQPLIIGYILTGILVSPYFLNIVRFEESISTLGHYGVTILLFMVGISLNPGYFKEIGKISVITGLGQIVFTFSIGFLISIFLGYSYIESMYISIALTFSSTIIIMKLISDKGDIDKLYGKISIGFLIVQDIVAMAILILISAFNVQSGAGELLFLLLSKIVLILTAIYIFTKYALSNFISYASKNQEFLFLFSLMWCFTLASIFHLLGFSSEIGALIAGIVLAMFPERYEIASKVRPLRDFFLILFFVVLGVQMTFETSGSFLIPAIILSIFVLFGNPIIVMILMGAFGYTKKTGFLAGLTVAQISEFSLIIASLGLRNGHLSQGIVSMITLIGIITIAGSSYFITYSEKIYSLLSNYLSIFEKKTKMSEKDFKNKNTGEIILFGADRTGKNILNVIENSKERFLIIDYNPKIIKDLSKRGYNSIYGDASNLELLNELNFKESKMLISTISDIETDILLIKTILKSNKNAIIIVIAHKIEDAIKLYEEGASYVIMPHFLGSIHASLMIQKYGLNIEEFLKEKSNHMESLKKSQELFRHTK | failed
TIPEGLRAVVFDFDGTILDTETREFHHWQELYREHGRELALSDWQRGVGTWDAFDPWAGLPEQVQADRENVRARLHDTIVSDIAGQDLRPGVRAVLEGVKAAGLRLALATSSDREWVTRWMRQHNLLDLFEAVATRDDVRRVKPDPELYLLAAARLGLRPEECLAVEDSFNGATAAVAAGMRLVVVPNDVTRTQPFPAEWRRLEDGYAGGLAGLL | failed
MTAEDGAAYIAFLADPQPSAQWVGRRGTPRDRHDWRPFEGPLSPASIRHARKILSTLYGCLIEQGHARANPFEVLSLPTGGDAPRIQVARSFTEPQWRFLLRHVSSLPADDPRAARLTFMLHLAHASGLRISEQAVATVGHLTWSGHWTLAVPGPKPRQIPLPEAVIDALRGHLAARGLGRGFESLPAATPLIGRVKTGDEGDALSVAQIGAIWKRYFAQAATLAGGEDDAAQLAQASAHWMRHTAGAHAVARGVALEVVQQQLGHASLDTTSMYVLAA | failed
IIAWLGPQLRELTPVDTNKDPKTRLQEFLQSRGCDLPRYEVVDIQGEPHCRTFFVDCEVALLSDKTHGHGGSRRIAEQVAAAAALVALGVENGHD | failed
MSLGKRIFVFDTTLRDGEQVPGCQLNTEEKIIVAKALDELGVDVIEAGFPVSSPGDFNSVVEITKAVTRPTICALTRAKEADINIAGEALRFAKRSRIHTGIGSSDIHIEHKLRSTRENILEMAVAAVKQAKKVVHEVEFFCEDAGRADQAFLARMVEAVIEAGADVVNIPDTTGYMLPWQYGERIKYLMDNVSNIDKAILSAHCHNDLGLATANSLAALQNGARQVECTINGIGERAGNTALEEVVMAMECHKETLGLETGINHKKLVPISHLVSTLMRMQVQSNKAIVGRNAFAHSSGIHQDGFLKHRETYEIIDEGHHHHHH | not failed
MSLWRLPMTLKTMTLAFAVTGLGVLAGSSPSVVQQRDGSQVVTPDEPKYNEDTGFYEYEKDGHKVQMNKDDVKTIEEVKLEHHHHHH | not failed
MMISDLPEDMVEEILSRVSIISLGALRWNDLSKARVICKAEARQQFAGFMIKGSKEVSNTRLVVWNPYLGKIWSIQHRSAYHSENRYTLGYDNNRKPQNLEEQLAVLLHNWGAFAMEIWVTTNIEPNAKKHAVIFDSSLSCGSVACIIGETGNLRTVDLGVAAVPYRQLPVCSYAPSLEQINQGQELPLIGLTQIFMEQHKYWVSTFLDNLITKYG | failed
MATANEHLVAWLRDAHAMEEQAITMLTSQSSRLENYPELKTRIDRHLQETKDQAAMLERCLERLDGGTSSIKDISGKIVAFGQGLSGLFVSDEVVKGTLASYTFEHMEIASYRILIAAAEQAGDQETKRVCESILQQEIAMAEWLAQNAGEITRKFLERDQRDVTAKH | not failed
MPTERPTTTAPVSLRERRRTAAAREILDAAEQHIGEHGPAALSLRAVARGLGMTVQALYHYFPNRDALVTALITKAYGELSDVLQAAADSVRADPATPRPVAVAEAYRGWGVARPEHFQLLYGTPLRYYAAPAEGPTTQAVRRMGAIFQRELFAGFTPAQLAAAEVPALSPSYREHLEQLPMHAQGDLPPAAASLFLSAWGHVHGLVVLEVFGHTAFLGDHQAEVFRTSVRMMLEDIHRRIPAA | not failed
